What was measured:
[1] = target: human ACE2 peptidase domain (amino acids 1-615 of human ACE2 with C-terminal His-10 and Avi tags) (human) (UniProt Q9BYF1)
[2] = target: human ACE2 peptidase domain (amino acids 1-615 of human ACE2 with C-terminal His-10 and Avi tags) (human) (UniProt Q9BYF1); test: biolayer interferometry; the reference KD of monomeric RBD is a literature value

Chain of UniProt Q9BYF1 (Q9BYF1 18-615 limits assumed): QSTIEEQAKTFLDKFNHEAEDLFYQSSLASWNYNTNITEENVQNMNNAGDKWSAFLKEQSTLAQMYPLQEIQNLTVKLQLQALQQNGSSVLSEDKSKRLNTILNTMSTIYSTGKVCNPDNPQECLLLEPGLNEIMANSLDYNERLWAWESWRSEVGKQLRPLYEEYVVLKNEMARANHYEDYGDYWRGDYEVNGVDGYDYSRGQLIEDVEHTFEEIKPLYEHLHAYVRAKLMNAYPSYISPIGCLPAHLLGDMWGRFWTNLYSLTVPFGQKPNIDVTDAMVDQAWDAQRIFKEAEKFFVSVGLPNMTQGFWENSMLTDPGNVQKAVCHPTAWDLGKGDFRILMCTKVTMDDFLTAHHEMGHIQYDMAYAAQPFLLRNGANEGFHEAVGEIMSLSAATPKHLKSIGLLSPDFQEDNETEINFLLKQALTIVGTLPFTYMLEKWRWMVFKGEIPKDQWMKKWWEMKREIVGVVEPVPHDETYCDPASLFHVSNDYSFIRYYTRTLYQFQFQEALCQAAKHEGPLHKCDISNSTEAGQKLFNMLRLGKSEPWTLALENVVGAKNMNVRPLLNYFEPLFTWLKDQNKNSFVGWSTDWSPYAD

**Q.** What does the source list for “trimerised SARS-CoV-2 S receptor-binding domain fused to the T4 fibritin foldon trimerisation domain (ligand; other documents disagree on this pair)”?
**A.** Kd [1]: 5 pM; fold of the reported KD of monomeric RBD [2]: 1000 fold
